Where no end group is shown, it is not given here.
How the values were obtained:
[1] = biological target: T1, PSMA Fab (biotinylated (site not stated)); experiment: clonal phage supernatant ELISA on biotinylated PSMA Fab captured on neutravidin; anti-M13-HRP detection
T1 construct: Biotinylated PSMA Fab captured on neutravidin coated plates for the clonal phage ELISA; also called Anti-PSMA Fab; 006 PSMA Fab

[2] = biological target: T1, PSMA Fab; experiment: clonal phage supernatant ELISA on PSMA Fab pre-incubated with PSMA antigen as competitor; anti-M13-HRP detection
Method: (§1) Clonal phage were harvested as crude supernatants and screened via standard ELISAs. […] Prior to the addition of clonal phage. wells were incubated with blocking buffer and PSMA antigen or blocking buffer alone. Without washing or aspirating, clonal phage supernatants were then added to the wells and incubated for a short time. Wells were then washed followed by detection of bound phage using a horse radish conjugated anti-M13 antibody.

[3] = biological target: T2, PSMA Fab (biotinylated (site not stated)); experiment: clonal phage ELISA; biotinylated PSMA Fab on neutravidin plate, blocking buffer alone; anti-M13 HRP detection;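 note: crude clonal phage supernatants added without washing to wells pretreated with blocking buffer with or without PSMA antigen, short incubation, then washed before detecting bound phage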
T2 construct: The panning ELISA names only 'biotinylated PSMA Fab' captured on neutravidin coated plates; also called Anti-PSMA Fab; 006 PSMA Fab

[4] = biological target: T2, PSMA Fab; experiment: clonal phage ELISA; biotinylated PSMA Fab on neutravidin plate, wells pre-incubated with PSMA antigen as competitor; anti-M13 HRP detection;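 note: crude clonal phage supernatants added to antigen-treated wells without a wash, incubated briefly, then bound phage read out via horse radish–conjugated anti-M13 antibody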
Method: as §1

[5] = biological target: T3, Anti-PSMA Fab (SEQ ID NOs: 19, 20); experiment: phage binding ELISA; biotinylated PSMA Fab on neutravidin plate, clonal phage supernatant, anti-M13 HRP detection;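 note: wells were preincubated with blocking buffer either containing PSMA antigen or without it before crude phage supernatant was added, briefly incubated, then washed prior to detection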
T3 construct: also called 006 PSMA Fab
Method: as §1

[6] = biological target: T3, Anti-PSMA Fab (SEQ ID NOs: 19, 20); experiment: phage binding ELISA; biotinylated PSMA Fab on neutravidin plate pre-incubated with PSMA antigen (competitor), anti-M13 HRP detection;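 note: competition ELISA where clonal phage supernatants were added to wells preincubated with PSMA antigen or with blocking buffer only as control, bound phage read via HRP-coupled anti-M13 antibody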
Method: as §1

[7] = biological target: T4, PSMA Fab (biotinylated (site not stated)); experiment: clonal phage ELISA on plate-bound PSMA Fab pre-incubated with PSMA antigen as competitor
T4 construct: Biotinylated PSMA Fab captured on neutravidin coated plates in the phage ELISA; also called Anti-PSMA Fab; 006 PSMA Fab

[8] = biological target: T4, PSMA Fab; experiment: clonal phage ELISA on biotinylated PSMA Fab captured on neutravidin; anti-M13 HRP detection
Method: as §1

B1: Phage-3107 (peptide)
peptide: PVAVCKPEWMCIGF
notes: Clonal phage of the peptide-180 library; not shown: pIII filament protein of the bacteriophage, fused to the peptide
Phage binding ELISA signal, Anti-PSMA Fab [1]: 2.08
Phage binding ELISA signal, Anti-PSMA Fab with PSMA antigen [2]: 0.105

B2: Phage-3236 (peptide)
peptide: PLPMCVPAWMCAGF
modifications: cysteine pairing not given here; also: fused to phage pIII, fusion site not given here
notes: also called Peptide-180 library clone
Phage binding ELISA signal, Anti-PSMA Fab [3]: 1.95
Phage binding ELISA signal, Anti-PSMA Fab with PSMA antigen [4]: 0.133

B3: Phage-3105 (peptide)
peptide: QEIRCEPIWMCWGF
notes: as for B1
Phage binding ELISA signal, Anti-PSMA Fab [1]: 2.09
Phage binding ELISA signal, Anti-PSMA Fab with PSMA antigen [2]: 0.147

VERLCMPEWMCLGF (also called Peptide-180 library clone) [Phage-3235]
Phage binding ELISA signal, Anti-PSMA Fab [3]: 1.95
Phage binding ELISA signal, Anti-PSMA Fab with PSMA antigen [4]: 0.126

DGIRCVPNWMCVGF (also called Peptide-180 library clone) [Phage-3234]
Phage binding ELISA signal, Anti-PSMA Fab [3]: 1.95
Phage binding ELISA signal, Anti-PSMA Fab with PSMA antigen [4]: 0.0969

B4: Phage-3110 (peptide)
peptide: VVQLCRPSWMCQGF
notes: as for B1
Phage binding ELISA signal, Anti-PSMA Fab [1]: 2.08
Phage binding ELISA signal, Anti-PSMA Fab with PSMA antigen [2]: 0.281

B5: Phage-1802 (peptide, not shown: large carriers)
peptide: LHVYCVPEWMCAGF
notes: Clonal phage supernatant; also called Peptide-272
Anti-PSMA Fab (SEQ ID NOs: 19, 20) signal [5]: 2.38
Anti-PSMA Fab signal in the presence of PSMA [6]: 0.109

B6: Phage-3222 (peptide)
peptide: MELKCVPKWMCAGF
modifications: cysteine pairing not given here; also: fused to phage pIII, sequence not given here
notes: not shown: pIII filament protein of the bacteriophage
phage binding ELISA signal [7]: 0.0684
phage binding ELISA signal [8]: 1.96

LTVLCEPAWMCVGF (also called Peptide-180 library clone) [Phage-3226]
Phage binding ELISA signal, Anti-PSMA Fab [3]: 1.95
Phage binding ELISA signal, Anti-PSMA Fab with PSMA antigen [4]: 0.0827

B7: Phage-3109 (peptide)
peptide: VEAMCKPWWMCEGL
notes: as for B1
Phage binding ELISA signal, Anti-PSMA Fab [1]: 2.08
Phage binding ELISA signal, Anti-PSMA Fab with PSMA antigen [2]: 0.0719

B8: Phage-3103 (peptide)
peptide: GEILCRPAWMCYGF
notes: as for B1
Phage binding ELISA signal, Anti-PSMA Fab [1]: 2.09
Phage binding ELISA signal, Anti-PSMA Fab with PSMA antigen [2]: 0.119

LGIYCVPEWMCQGF (also called Peptide-180 library clone) [Phage-3230]
Phage binding ELISA signal, Anti-PSMA Fab [3]: 1.95
Phage binding ELISA signal, Anti-PSMA Fab with PSMA antigen [4]: 0.0818

VTAYCVPPWMCAVF (also called Peptide-180 library clone) [Phage-3231]
Phage binding ELISA signal, Anti-PSMA Fab [3]: 1.95
Phage binding ELISA signal, Anti-PSMA Fab with PSMA antigen [4]: 0.102

B9: Phage-3112 (peptide)
peptide: EPQMCIPRWMCDGF
notes: as for B1
Phage binding ELISA signal, Anti-PSMA Fab [1]: 2.08
Phage binding ELISA signal, Anti-PSMA Fab with PSMA antigen [2]: 0.135

B10: Phage-3220 (peptide)
peptide: IPRACIPAWMCQGF
notes: as for B6
phage binding ELISA signal [7]: 0.101
phage binding ELISA signal [8]: 1.96

PIVKCSPAWMCSGF (also called Peptide-180 library clone) [Phage-3227]
Phage binding ELISA signal, Anti-PSMA Fab [3]: 1.95
Phage binding ELISA signal, Anti-PSMA Fab with PSMA antigen [4]: 0.0757

B11: Phage-3223 (peptide)
peptide: PQWMCKPEWMCNGF
notes: as for B6
phage binding ELISA signal [7]: 0.0807
phage binding ELISA signal [8]: 1.96

EEPLCRPVWMCEGF (peptide, not shown: large carriers, Clonal phage supernatant) [Phage-1799]
Anti-PSMA Fab (SEQ ID NOs: 19, 20) signal [5]: 2.41
Anti-PSMA Fab signal in the presence of PSMA [6]: 0.117

B12: Phage-3216 (peptide)
peptide: VEPLCVPSWMCQGI
notes: as for B6
phage binding ELISA signal [7]: 0.076
phage binding ELISA signal [8]: 1.97

B13: Phage-3106 (peptide)
peptide: NPMYCKPSWMCEGF
notes: as for B1
Phage binding ELISA signal, Anti-PSMA Fab [1]: 2.08
Phage binding ELISA signal, Anti-PSMA Fab with PSMA antigen [2]: 0.0958

IVKACKPEWMCVGF (also called Peptide-180 library clone) [Phage-3232]
Phage binding ELISA signal, Anti-PSMA Fab [3]: 1.95
Phage binding ELISA signal, Anti-PSMA Fab with PSMA antigen [4]: 0.0754

B14: Phage-3113 (peptide)
peptide: NGVVCQPPWMCFGF
notes: as for B1
Phage binding ELISA signal, Anti-PSMA Fab [1]: 2.08
Phage binding ELISA signal, Anti-PSMA Fab with PSMA antigen [2]: 0.0794

B15: Phage-3213 (peptide)
peptide: AIAMCVPSWMCTGL
modifications: cysteine pairing not given here; also: fused to phage pIII, sequence not given here
notes: as for B6
phage binding ELISA signal [7]: 0.0711
phage binding ELISA signal [8]: 1.97

B16: Phage-3225 (peptide)
peptide: GEVLCRPIWMCNGF
notes: as for B6
phage binding ELISA signal [7]: 0.123
phage binding ELISA signal [8]: 1.95

B17: Phage-3233 (peptide)
peptide: PYAMCEPAWMCSGF
modifications: cysteine pairing not given here; also: fused to phage pIII, fusion site not given here
notes: as for B2
Phage binding ELISA signal, Anti-PSMA Fab [3]: 1.95
Phage binding ELISA signal, Anti-PSMA Fab with PSMA antigen [4]: 0.0697

B18: Phage-3215 (peptide)
peptide: LDLRCQPPWMCMGF
notes: as for B6
phage binding ELISA signal [7]: 0.0778
phage binding ELISA signal [8]: 1.97

B19: Phage-3108 (peptide)
peptide: SEVVCVPTWMCTGF
notes: as for B1
Phage binding ELISA signal, Anti-PSMA Fab [1]: 2.08
Phage binding ELISA signal, Anti-PSMA Fab with PSMA antigen [2]: 0.0805

B20: Phage-3102 (peptide)
peptide: DFAYCKPEWMCVGF
notes: as for B1
Phage binding ELISA signal, Anti-PSMA Fab [1]: 2.09
Phage binding ELISA signal, Anti-PSMA Fab with PSMA antigen [2]: 0.0844

VGHVCLPPWMCTGF (also called Peptide-180 library clone) [Phage-3228]
Phage binding ELISA signal, Anti-PSMA Fab [3]: 1.95
Phage binding ELISA signal, Anti-PSMA Fab with PSMA antigen [4]: 0.0697

B21: Phage-3111 (peptide)
peptide: IEIMCMPRWMCDGF
notes: as for B1
Phage binding ELISA signal, Anti-PSMA Fab [1]: 2.08
Phage binding ELISA signal, Anti-PSMA Fab with PSMA antigen [2]: 0.101

B22: Phage-3214 (peptide)
peptide: MAPYCVPSWMCWGF
notes: as for B6
phage binding ELISA signal [7]: 0.145
phage binding ELISA signal [8]: 1.97

EDILCKPKWMCEGF (peptide, not shown: large carriers, Clonal phage supernatant) [Phage-1801]
Anti-PSMA Fab (SEQ ID NOs: 19, 20) signal [5]: 2.4
Anti-PSMA Fab signal in the presence of PSMA [6]: 0.109

B23: Phage-3218 (peptide)
peptide: DVHLCKPSWMCAGF
modifications: cysteine pairing not given here; also: fused to phage pIII, sequence not given here
notes: as for B6
phage binding ELISA signal [7]: 0.0706
phage binding ELISA signal [8]: 1.96

B24: Phage-3224 (peptide)
peptide: ITALCKPAWMCDGF
notes: as for B6
phage binding ELISA signal [7]: 0.109
phage binding ELISA signal [8]: 1.96

B25: Phage-1800 (peptide, not shown: large carriers)
peptide: ESRLCVPAWMCAGF
notes: Clonal phage supernatant; also called Peptide-270
Anti-PSMA Fab (SEQ ID NOs: 19, 20) signal [5]: 2.41
Anti-PSMA Fab signal in the presence of PSMA [6]: 0.103

B26: Phage-3221 (peptide)
peptide: LQILCKPQWMCEGL
notes: as for B6
phage binding ELISA signal [7]: 0.0882
phage binding ELISA signal [8]: 1.96

B27: Phage-3104 (peptide)
peptide: GEVLCRPAWMCSGF
notes: as for B1
Phage binding ELISA signal, Anti-PSMA Fab [1]: 2.09
Phage binding ELISA signal, Anti-PSMA Fab with PSMA antigen [2]: 0.11

B28: Phage-3219 (peptide)
peptide: DQVMCKPIWMCEGF
notes: as for B6
phage binding ELISA signal [7]: 0.0928
phage binding ELISA signal [8]: 1.96

B29: Phage-3237 (peptide)
peptide: EYHKCIPEWMCAGF
modifications: cysteine pairing not given here; also: fused to phage pIII, fusion site not given here
notes: as for B2
Phage binding ELISA signal, Anti-PSMA Fab [3]: 1.94
Phage binding ELISA signal, Anti-PSMA Fab with PSMA antigen [4]: 0.0924

B30: Phage-3217 (peptide)
peptide: IELFCKPAWMCDGF
notes: as for B6
phage binding ELISA signal [7]: 0.111
phage binding ELISA signal [8]: 1.97

B31: Phage-3114 (peptide)
peptide: VPRYCVPQWMCAAF
notes: as for B1
Phage binding ELISA signal, Anti-PSMA Fab [1]: 2.08
Phage binding ELISA signal, Anti-PSMA Fab with PSMA antigen [2]: 0.0864

ITPLCSPAWMCQGL (also called Peptide-180 library clone) [Phage-3229]
Phage binding ELISA signal, Anti-PSMA Fab [3]: 1.95
Phage binding ELISA signal, Anti-PSMA Fab with PSMA antigen [4]: 0.055
